Assay results reported in publication PMC3420917, “A Combinatorial Amino Acid Code for RNA Recognition by Pentatricopeptide Repeat Proteins” (PLoS Genetics, 2012).

T1: rPPR10 wild-type (maize, UniProt B8Y6I0 96-786)
T1 sequence: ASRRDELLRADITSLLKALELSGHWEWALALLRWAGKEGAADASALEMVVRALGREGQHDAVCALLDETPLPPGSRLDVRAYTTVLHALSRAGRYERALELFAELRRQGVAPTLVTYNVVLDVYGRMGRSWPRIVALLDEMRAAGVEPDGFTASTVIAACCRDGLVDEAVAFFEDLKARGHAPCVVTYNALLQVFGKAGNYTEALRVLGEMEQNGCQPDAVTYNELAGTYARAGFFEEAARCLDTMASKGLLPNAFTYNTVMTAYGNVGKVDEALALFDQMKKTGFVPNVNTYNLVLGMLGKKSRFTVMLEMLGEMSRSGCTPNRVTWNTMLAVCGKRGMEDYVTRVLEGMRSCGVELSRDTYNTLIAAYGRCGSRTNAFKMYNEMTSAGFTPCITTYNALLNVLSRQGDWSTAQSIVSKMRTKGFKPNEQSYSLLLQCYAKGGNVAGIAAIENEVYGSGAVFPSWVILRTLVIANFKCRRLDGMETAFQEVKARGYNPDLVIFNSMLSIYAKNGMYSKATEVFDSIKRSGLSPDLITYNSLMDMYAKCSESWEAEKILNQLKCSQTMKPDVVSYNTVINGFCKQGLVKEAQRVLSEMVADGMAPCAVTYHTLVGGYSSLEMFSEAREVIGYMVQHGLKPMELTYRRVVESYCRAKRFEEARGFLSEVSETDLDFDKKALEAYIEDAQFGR

T2: PPR10 ND variant (maize, UniProt B8Y6I0 96-786, N349D)
T2 sequence: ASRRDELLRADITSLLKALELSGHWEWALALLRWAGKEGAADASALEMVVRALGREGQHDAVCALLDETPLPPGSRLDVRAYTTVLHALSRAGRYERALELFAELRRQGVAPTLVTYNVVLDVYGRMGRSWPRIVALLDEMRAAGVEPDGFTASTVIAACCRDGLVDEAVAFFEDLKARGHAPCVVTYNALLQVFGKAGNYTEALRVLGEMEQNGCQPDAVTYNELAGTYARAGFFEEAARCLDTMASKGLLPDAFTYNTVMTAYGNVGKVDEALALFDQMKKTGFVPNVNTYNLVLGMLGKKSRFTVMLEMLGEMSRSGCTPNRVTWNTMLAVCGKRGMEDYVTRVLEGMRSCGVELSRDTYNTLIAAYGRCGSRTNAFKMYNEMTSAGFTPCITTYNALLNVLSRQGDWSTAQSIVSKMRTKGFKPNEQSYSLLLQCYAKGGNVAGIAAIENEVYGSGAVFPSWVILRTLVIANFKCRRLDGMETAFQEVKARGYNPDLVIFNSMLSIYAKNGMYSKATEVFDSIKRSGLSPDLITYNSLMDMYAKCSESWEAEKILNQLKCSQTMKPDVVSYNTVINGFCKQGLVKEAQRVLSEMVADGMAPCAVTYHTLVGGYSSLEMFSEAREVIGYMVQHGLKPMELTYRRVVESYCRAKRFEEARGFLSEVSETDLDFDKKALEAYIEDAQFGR

T3: PPR10 NS variant (maize, UniProt B8Y6I0 96-786, D314S;N349S)
T3 sequence: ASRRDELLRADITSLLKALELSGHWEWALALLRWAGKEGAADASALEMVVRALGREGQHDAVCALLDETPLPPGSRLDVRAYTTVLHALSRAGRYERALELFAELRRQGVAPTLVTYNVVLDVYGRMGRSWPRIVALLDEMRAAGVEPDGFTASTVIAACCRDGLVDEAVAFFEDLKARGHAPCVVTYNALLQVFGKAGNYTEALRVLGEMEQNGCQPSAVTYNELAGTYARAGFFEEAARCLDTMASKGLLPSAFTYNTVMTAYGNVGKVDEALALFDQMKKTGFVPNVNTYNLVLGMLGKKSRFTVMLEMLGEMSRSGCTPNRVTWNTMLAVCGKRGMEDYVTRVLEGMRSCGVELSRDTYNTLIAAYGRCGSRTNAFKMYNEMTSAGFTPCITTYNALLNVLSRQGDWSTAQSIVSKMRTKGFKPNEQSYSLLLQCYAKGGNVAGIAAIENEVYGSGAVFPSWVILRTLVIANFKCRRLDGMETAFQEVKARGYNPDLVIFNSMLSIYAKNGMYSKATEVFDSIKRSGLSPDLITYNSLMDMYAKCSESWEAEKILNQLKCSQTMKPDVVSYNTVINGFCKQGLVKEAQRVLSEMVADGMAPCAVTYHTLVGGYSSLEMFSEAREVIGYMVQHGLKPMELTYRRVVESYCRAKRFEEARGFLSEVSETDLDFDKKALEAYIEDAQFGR

T4: PPR10 NN variant (maize, UniProt B8Y6I0 96-786, D314N)
T4 sequence: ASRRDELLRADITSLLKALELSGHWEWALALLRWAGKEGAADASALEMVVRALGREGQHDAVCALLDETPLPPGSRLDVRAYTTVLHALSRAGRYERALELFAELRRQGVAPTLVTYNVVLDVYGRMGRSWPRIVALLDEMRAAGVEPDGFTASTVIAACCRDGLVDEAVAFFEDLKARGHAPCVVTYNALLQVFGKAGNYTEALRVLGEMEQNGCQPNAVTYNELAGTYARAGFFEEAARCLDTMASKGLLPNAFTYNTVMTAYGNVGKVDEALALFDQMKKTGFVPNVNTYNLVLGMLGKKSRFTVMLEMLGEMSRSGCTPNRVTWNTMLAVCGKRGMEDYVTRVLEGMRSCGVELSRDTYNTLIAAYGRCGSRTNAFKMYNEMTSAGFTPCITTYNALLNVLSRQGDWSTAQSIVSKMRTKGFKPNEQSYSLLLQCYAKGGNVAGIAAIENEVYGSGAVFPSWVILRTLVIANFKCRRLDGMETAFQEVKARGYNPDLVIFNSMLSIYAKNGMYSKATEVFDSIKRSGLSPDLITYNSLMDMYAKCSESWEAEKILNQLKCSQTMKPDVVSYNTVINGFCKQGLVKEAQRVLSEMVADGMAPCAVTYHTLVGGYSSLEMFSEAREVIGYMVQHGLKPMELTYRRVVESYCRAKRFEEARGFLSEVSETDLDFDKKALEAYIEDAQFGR


What was measured:
rPPR10 wild-type = biological target: T1, rPPR10 wild-type; assay: SV-AUC; 3 uM protein, 1.5 or 3 uM RNA; 1:1 monomer complex; EMSA: radiolabeled RNA 15 pM, protein 0, 5, 10, 20 nM; binding buffer and temperature by reference [12]; protein stock in 400 mM NaCl, 50 mM Tris-HCl pH 7.5, 5; details: protein: recombinant; tags: MBP fusion removed by TEV cleavage; single-stranded
PPR10 ND variant = biological target: T2, PPR10 ND variant; assay: EMSA; EMSA: radiolabeled RNA 15 pM, protein 0, 5, 10, 20 nM; binding buffer and temperature by reference [12]; protein stock in 400 mM NaCl, 50 mM Tris-HCl pH 7.5, 5; details: protein: recombinant; tags: MBP fusion removed by TEV cleavage; label: radiolabeled; single-stranded
PPR10 NS variant = biological target: T3, PPR10 NS variant; assay: as above; details: protein: recombinant; tags: MBP fusion removed by TEV cleavage; label: radiolabeled; single-stranded
PPR10 NN variant [1] = biological target: T4, PPR10 NN variant; assay: EMSA; affinity similar to CC RNA; EMSA: radiolabeled RNA 15 pM, protein 0, 5, 10, 20 nM; binding buffer and temperature by reference [12]; protein stock in 400 mM NaCl, 50 mM Tris-HCl pH 7.5, 5; details: protein: recombinant; tags: MBP fusion removed by TEV cleavage; label: radiolabeled; single-stranded
PPR10 NN variant [2] = biological target: T4, PPR10 NN variant; assay: EMSA; affinity similar to UU RNA; EMSA: radiolabeled RNA 15 pM, protein 0, 5, 10, 20 nM; binding buffer and temperature by reference [12]; protein stock in 400 mM NaCl, 50 mM Tris-HCl pH 7.5, 5; details: protein: recombinant; tags: MBP fusion removed by TEV cleavage; label: radiolabeled; single-stranded

Binder | binding result (rPPR10 wild-type) | Kd (PPR10 ND variant) | Kd (PPR10 NS variant) | binding result (PPR10 NN variant [1]) | binding result (PPR10 NN variant [2])
GUAUCCUUAACCAUUUC (ssRNA) [PPR10 17-nt minimal RNA ligand] | binds | – | – | – | –
GUAUUCUUAACCAUUUC (ssRNA) [UU RNA] | – | ~3 nM | 20 nM | binds | –
GUACCCUUAACCAUUUC (ssRNA) [CC RNA] | – | 17 nM | 9 nM | – | binds
